Assays:
[1] = target: GM-CSF receptor on human CD34+ cord blood cells (human (endogenous in CD34+ cord blood cells)) (UniProt P32927); assay: radioligand binding
[2] = target: GM-CSF receptor on TF-1 cells (human (endogenous in TF-1)) (UniProt P32927); assay: radioligand binding

KD of the high-affinity site [1] | percent by which the IC50 is less than for full-length GM-CSF [2] | Substance
734 pM |  | DPP4-truncated recombinant human [125I]-GM-CSF (ligand)
 | 88% | unlabeled DPP4-truncated recombinant human GM-CSF (ligand)
